We go through two proteins from article doi:10.1101/2025.02.05.636725, “DHRS7 Integrates NADP^+/NADPH Redox Sensing with Inflammatory Lipid Signalling via the Oxoeicosanoid Pathway” (bioRxiv, 2025).

Substrate in data set [1]: CCCCC/C=C\C/C=C\C/C=C\C=C\[C@@H](O)CCCC(=O)O
The data set is described as follows: cells, lysate or membranes. The settings on record: microsomes of overexpressing HEK293T DHRS7-KO cells, NADP+ in excess, pH 7.5, 37 °C, apparent (pseudo-first order), eGFP fusion.

Substrate in data set [2]: NC(=O)c1ccc[n+]([C@@H]2O[C@H](COP(=O)(O)OP(=O)(O)OC[C@H]3O[C@@H](n4cnc5c(N)ncnc54)[C@H](OP(=O)(O)O)[C@@H]3O)[C@@H](O)[C@H]2O)c1
In words: NADPH fluorescence, plate reader, Michaelis-Menten fit of initial velocities. The format is cell-based, Danio rerio. The following applies: microsomes of overexpressing HEK293T DHRS7-KO cells, 5(S)-HETE in excess, pH 7.5, 37 °C, apparent (pseudo-first order), eGFP fusion, varied: cofactor.

Substrate in data set [3]: NC(=O)c1ccc[n+]([C@@H]2O[C@H](COP(=O)(O)OP(=O)(O)OC[C@H]3O[C@@H](n4cnc5c(N)ncnc54)[C@H](OP(=O)(O)O)[C@@H]3O)[C@@H](O)[C@H]2O)c1
Described as above. The format is cell-based, Homo sapiens. The following applies: microsomes of overexpressing HEK293T DHRS7-KO cells, 5(S)-HETE in excess, pH 7.5, 37 °C, apparent (pseudo-first order), eGFP fusion, varied: cofactor.

B1: dr Dhrs7 (Danio rerio) (protein)
chain: MDICWLCVGLAGTAVYLLVQFIRFIFADADLTLLWAARFGKTPESTFRGKVVWITGASSGIGEELSLQLAAIGARLVLSARRENELERVKRLCLERSSLKAEDILVLPLDLMDRASHPEKTTAALEHFGEIDVLINNGGRSQRALCVDADVDVYQALMELNYLGTVSITKQVLPHMIQRGTGIIATVSSVAGFVGVPLATGYAASKHALQGFFNSLRTELSDCPNILISNICPGPVISSIVQNAFTEELGKPVATAGDQTHKMSTERCVHLTLVGLANRVKEMWIAEQPFLLFCYVWQYTPTLAWYLTNVLGKKRVQNFKAGVDADAAYFSKPKAKTS
notes: Dhrs7-eGFP fusion (pSBtet-eGFP vector, doxycycline-induced) in microsomes of human HEK293T DHRS7-knockout cells
Take B1: the Km in data set [1] was 1.4 (95% CI: [1.1, 1.7]) μM; in data set [2], 0.63 (95% CI: [0.24, 1.03]) μM.

B2: hs DHRS7 (Homo sapiens) (protein)
chain: MNWELLLWLLVLCALLLLLVQLLRFLRADGDLTLLWAEWQGRRPEWELTDMVVWVTGASSGIGEELAYQLSKLGVSLVLSARRVHELERVKRRCLENGNLKEKDILVLPLDLTDTGSHEAATKAVLQEFGRIDILVNNGGMSQRSLCMDTSLDVYRKLIELNYLGTVSLTKCVLPHMIERKQGKIVTVNSILGIISVPLSIGYCASKHALRGFFNGLRTELATYPGIIVSNICPGPVQSNIVENSLAGEVTKTIGNNGDQSHKMTTSRCVRLMLISMANDLKEVWISEQPFLLVTYLWQYMPTWAWWITNKMGKKRIENFKSGVDADSSYFKIFKTKHD
notes: DHRS7-eGFP fusion (pSBtet-eGFP vector, doxycycline-induced) in microsomes of HEK293T DHRS7-knockout cells
Turning to B2, the Km in data set [1] was 0.78 (95% CI: [0.43, 1.13]) μM; in data set [3], 0.62 (95% CI: [0.39, 0.97]) μM.
